Assay results as given in article PMC10397247.

Columns and labels:
[1] = target: T1, 4H2717-bA; experiment: two-hybrid library CCNG1;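 further: natural log of median RNA to DNA barcode read ratio; higher means stronger binding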
T1 chain: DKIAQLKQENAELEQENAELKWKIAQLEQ

[2] = target: T2, 4H967-bA; experiment: two-hybrid library CCNG1;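 further: natural log of median RNA to DNA barcode read ratio; higher means stronger binding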
T2 chain: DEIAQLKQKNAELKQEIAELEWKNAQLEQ

[3] = target: T3, 4H3057-bA; experiment: two-hybrid library CCNG1;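 further: natural log of median RNA to DNA barcode read ratio; higher means stronger binding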
T3 chain: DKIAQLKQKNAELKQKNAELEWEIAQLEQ

[4] = target: T4, 4H2588-bA; experiment: two-hybrid library CCNG1;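 further: natural log of median RNA to DNA barcode read ratio; higher means stronger binding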
T4 chain: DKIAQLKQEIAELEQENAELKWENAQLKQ

[5] = target: T5, 4H2915-bA; experiment: two-hybrid library CCNG1
T5 chain: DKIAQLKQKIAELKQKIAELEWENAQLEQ

[6] = target: T6, 4H741-bA; experiment: two-hybrid library CCNG1
T6 chain: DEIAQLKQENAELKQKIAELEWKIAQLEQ

[7] = target: T7, 4H2473-bA; experiment: two-hybrid library CCNG1
T7 chain: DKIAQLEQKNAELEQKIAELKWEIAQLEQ

[8] = target: T8, 4H348-bA; experiment: two-hybrid library CCNG1
T8 chain: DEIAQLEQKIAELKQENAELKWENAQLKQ

[9] = target: T9, 4H492-bA; experiment: two-hybrid library CCNG1
T9 chain: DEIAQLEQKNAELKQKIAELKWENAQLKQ

[10] = target: T10, 4H2503-bA; experiment: two-hybrid library CCNG1
T10 chain: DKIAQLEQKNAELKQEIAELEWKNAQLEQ

[11] = target: T11, 4H3277-bA; experiment: two-hybrid library CCNG1
T11 chain: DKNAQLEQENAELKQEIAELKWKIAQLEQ

[12] = target: T12, 4H2692-bA; experiment: two-hybrid library CCNG1
T12 chain: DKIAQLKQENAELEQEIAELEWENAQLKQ

[13] = target: T13, 4H2839-bA; experiment: two-hybrid library CCNG1
T13 chain: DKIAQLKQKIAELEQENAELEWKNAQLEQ

[14] = target: T14, 4H40-bA; experiment: two-hybrid library CCNG1
T14 chain: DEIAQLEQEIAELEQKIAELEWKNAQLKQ

[15] = target: T15, 4H319-bA; experiment: two-hybrid library CCNG1
T15 chain: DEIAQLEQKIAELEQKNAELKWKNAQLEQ

[16] = target: T16, 4H2438-bA; experiment: two-hybrid library CCNG1
T16 chain: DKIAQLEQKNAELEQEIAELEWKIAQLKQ

[17] = target: T17, 4H477-bA; experiment: two-hybrid library CCNG1
T17 chain: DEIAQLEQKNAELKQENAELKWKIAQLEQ

[18] = target: T18, 4H656-AA; experiment: two-hybrid library CCmax; details: mean of both orientations
T18 chain: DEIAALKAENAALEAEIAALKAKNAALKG

[19] = target: T19, 4H189-AA; experiment: two-hybrid library CCmax
T19 chain: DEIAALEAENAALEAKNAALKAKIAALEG

[20] = target: T20, 4H1391-AA; experiment: two-hybrid library CCmax; details: mean of both orientations
T20 chain: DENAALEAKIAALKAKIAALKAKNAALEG

[21] = target: T21, 4H428-AA; experiment: two-hybrid library CCmax; details: mean of both orientations
T21 chain: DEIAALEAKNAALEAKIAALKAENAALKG

[22] = target: T22, 4H3591-AA; experiment: two-hybrid library CCmax; details: mean of both orientations
T22 chain: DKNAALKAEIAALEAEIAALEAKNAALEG

[23] = target: T23, 4H675-AA; experiment: two-hybrid library CCmax; details: mean of both orientations
T23 chain: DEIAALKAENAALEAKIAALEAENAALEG

[24] = target: T24, 4H3102-AA; experiment: two-hybrid library CCmax; details: mean of both orientations
T24 chain: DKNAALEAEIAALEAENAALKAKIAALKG

[25] = target: T25, 4H2248-AA; experiment: two-hybrid library CCmax; details: mean of both orientations
T25 chain: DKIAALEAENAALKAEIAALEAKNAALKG

[26] = target: T26, 4H497-AA; experiment: two-hybrid library CCmax; details: mean of both orientations
T26 chain: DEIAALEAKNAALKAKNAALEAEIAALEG

[27] = target: T27, 4H2713-AA; experiment: two-hybrid library CCmax; details: mean of both orientations
T27 chain: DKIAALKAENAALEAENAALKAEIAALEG

[28] = target: T28, 4H2948-AA; experiment: two-hybrid library CCmax; details: mean of both orientations
T28 chain: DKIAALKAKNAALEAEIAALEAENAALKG

[29] = target: T29, 4H971-AA; experiment: two-hybrid library CCmax
T29 chain: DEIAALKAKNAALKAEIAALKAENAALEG

[30] = target: T30, 4H1348-AA; experiment: two-hybrid library CCmax
T30 chain: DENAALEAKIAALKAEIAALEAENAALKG

[31] = target: T31, 4H1854-AA; experiment: two-hybrid library CCmax; details: mean of both orientations
T31 chain: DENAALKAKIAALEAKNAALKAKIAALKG

[32] = target: T32, 4H2991-AA; experiment: two-hybrid library CCmax; details: mean of both orientations
T32 chain: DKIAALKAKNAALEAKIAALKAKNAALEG

[33] = target: T33, 4H1809-AA; experiment: two-hybrid library CCmax; details: mean of both orientations
T33 chain: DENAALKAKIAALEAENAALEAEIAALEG

[34] = target: T34, 4H3920-AA; experiment: two-hybrid library CCmax; details: mean of both orientations
T34 chain: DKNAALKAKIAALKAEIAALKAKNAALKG

[35] = target: T35, 4H3029-AA; experiment: two-hybrid library CCmax; details: mean of both orientations
T35 chain: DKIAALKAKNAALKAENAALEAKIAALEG

[36] = target: T36, 4H3939-AA; experiment: two-hybrid library CCmax; details: mean of both orientations
T36 chain: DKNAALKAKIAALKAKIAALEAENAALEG

[37] = target: T37, 4H3709-AA; experiment: two-hybrid library CCmax; details: mean of both orientations
T37 chain: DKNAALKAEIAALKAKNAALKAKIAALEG

[38] = target: T38, 4H391-AA; experiment: two-hybrid library CCmax; details: mean of both orientations
T38 chain: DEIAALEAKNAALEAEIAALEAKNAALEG

[39] = target: T39, 4H3628-AA; experiment: two-hybrid library CCmax; details: mean of both orientations
T39 chain: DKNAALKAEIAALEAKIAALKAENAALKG

[40] = target: T40, 4H146-AA; experiment: two-hybrid library CCmax
T40 chain: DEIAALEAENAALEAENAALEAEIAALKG

[41] = target: T41, 4H3666-AA; experiment: two-hybrid library CCmax; details: mean of both orientations
T41 chain: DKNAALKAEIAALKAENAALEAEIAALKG

[42] = target: T42, 4H3446-AA; experiment: two-hybrid library CCmax; details: mean of both orientations
T42 chain: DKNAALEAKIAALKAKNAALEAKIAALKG

[43] = target: T43, 4H3066-AA; experiment: two-hybrid library CCmax; details: mean of both orientations
T43 chain: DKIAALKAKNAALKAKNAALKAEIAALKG

[44] = target: T44, 4H3121-AA; experiment: two-hybrid library CCmax; details: mean of both orientations
T44 chain: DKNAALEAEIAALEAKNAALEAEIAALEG

[45] = target: T45, 4H3417-AA; experiment: two-hybrid library CCmax; details: mean of both orientations
T45 chain: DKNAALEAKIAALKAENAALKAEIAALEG

[46] = target: T46, 4H2742-AA; experiment: two-hybrid library CCmax; details: mean of both orientations
T46 chain: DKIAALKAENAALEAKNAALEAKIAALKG

[47] = target: T47, 4H478-AA; experiment: two-hybrid library CCmax; details: mean of both orientations
T47 chain: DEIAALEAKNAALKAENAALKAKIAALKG

[48] = target: T48, 4H2283-AA; experiment: two-hybrid library CCmax; details: mean of both orientations
T48 chain: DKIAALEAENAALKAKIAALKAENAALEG

[49] = target: T49, P8; experiment: two-hybrid library CC1; details: mean of both orientations
T49 chain: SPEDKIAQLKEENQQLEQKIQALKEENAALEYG

[50] = target: T50, P5; experiment: two-hybrid library CC1; details: mean of both orientations
T50 chain: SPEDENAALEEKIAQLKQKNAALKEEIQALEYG

[51] = target: T51, P5SC2; experiment: two-hybrid library CC1; details: mean of both orientations
T51 chain: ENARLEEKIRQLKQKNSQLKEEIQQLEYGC

[52] = target: T52, P8mS; experiment: two-hybrid library CC1; details: mean of both orientations
T52 chain: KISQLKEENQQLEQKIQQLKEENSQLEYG

[53] = target: T53, P4; experiment: two-hybrid library CC1
T53 chain: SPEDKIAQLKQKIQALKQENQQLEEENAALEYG

[54] = target: T54, P5mS; experiment: two-hybrid library CC1; details: mean of both orientations
T54 chain: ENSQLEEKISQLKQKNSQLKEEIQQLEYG

[55] = target: T55, P6SC2; experiment: two-hybrid library CC1; details: mean of both orientations
T55 chain: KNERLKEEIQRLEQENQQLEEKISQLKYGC

[56] = target: T56, P5SC1; experiment: two-hybrid library CC1; details: mean of both orientations
T56 chain: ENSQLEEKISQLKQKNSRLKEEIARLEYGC

[57] = target: T57, P4mS; experiment: two-hybrid library CC1; details: mean of both orientations
T57 chain: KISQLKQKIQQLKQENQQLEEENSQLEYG

[58] = target: T58, P7mS; experiment: two-hybrid library CC1; details: mean of both orientations
T58 chain: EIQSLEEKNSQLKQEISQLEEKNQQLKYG

[59] = target: T59, P9; experiment: two-hybrid library CC1; details: mean of both orientations
T59 chain: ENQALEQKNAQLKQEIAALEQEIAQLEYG

[60] = target: T60, P6mS; experiment: two-hybrid library CC1; details: mean of both orientations
T60 chain: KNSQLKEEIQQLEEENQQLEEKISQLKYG

[61] = target: T61, P7; experiment: two-hybrid library CC1; details: mean of both orientations
T61 chain: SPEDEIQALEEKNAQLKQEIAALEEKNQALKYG

[62] = target: T62, P6; experiment: two-hybrid library CC1; details: mean of both orientations
T62 chain: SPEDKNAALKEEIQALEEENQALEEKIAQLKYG

[63] = target: T63, P6SC1; experiment: two-hybrid library CC1; details: mean of both orientations
T63 chain: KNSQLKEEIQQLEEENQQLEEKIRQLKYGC

[64] = target: T64, 4H363-bA; experiment: two-hybrid library CCNG1
T64 chain: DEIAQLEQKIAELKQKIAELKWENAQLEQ

[65] = target: T65, 4H470-bA; experiment: two-hybrid library CCNG1
T65 chain: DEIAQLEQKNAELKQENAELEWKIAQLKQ

[66] = target: T66, 4H3961-bA; experiment: two-hybrid library CCNG1
T66 chain: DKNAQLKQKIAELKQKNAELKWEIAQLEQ

[67] = target: T67, 4H3907-bA; experiment: two-hybrid library CCNG1
T67 chain: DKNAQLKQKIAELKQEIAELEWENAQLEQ

[68] = target: T68, 4H344-bA; experiment: two-hybrid library CCNG1
T68 chain: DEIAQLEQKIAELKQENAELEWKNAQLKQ

## DKIAQLEQKNAELEQEIAELEWKIAQLKQ [4H2438-bA]
[1]
  interaction score: -0.288
[2]
  interaction score: -0.568
[3]
  interaction score: 2.39
[4]
  interaction score: -1.29
[5]
  interaction score: 1.77
[6]
  interaction score: -0.215
[7]
  interaction score: 1.36
[8]
  interaction score: 0.0426
[9]
  interaction score: 1.59
[10]
  interaction score: 0.927
[11]
  interaction score: -1.45
[12]
  interaction score: 0.00488
[13]
  interaction score: 0.364
[14]
  interaction score: -0.83
[15]
  interaction score: -0.948
[16]
  interaction score: 1.74
[17]
  interaction score: -0.278

## DENAALEAKIAALKAEIAALEAENAALKG [4H1348-AA]
[18]
  interaction score: -0.833
[19]
  interaction score: -1.2
[20]
  interaction score: -0.755
[21]
  interaction score: -0.542
[22]
  interaction score: 0.665
[23]
  interaction score: -1.36
[24]
  interaction score: -1.34
[25]
  interaction score: -1.37
[26]
  interaction score: -2.02
[27]
  interaction score: -1.2
[28]
  interaction score: -1.13
[29]
  interaction score: -1.78
[30]
  interaction score: 1.56
[31]
  interaction score: -1.01
[32]
  interaction score: -1.75
[33]
  interaction score: -1.86
[34]
  interaction score: 1.37
[35]
  interaction score: -1.57
[36]
  interaction score: 0.262
[37]
  interaction score: -1.57
[38]
  interaction score: -1.94
[39]
  interaction score: 2.05
[40]
  interaction score: -2.73
[41]
  interaction score: -1.46
[42]
  interaction score: -1.25
[43]
  interaction score: -2.16
[44]
  interaction score: -1.43
[45]
  interaction score: -1.13
[46]
  interaction score: -1.31
[47]
  interaction score: 0.507
[48]
  interaction score: -1.14

## SPEDKIAQLKQKIQALKQENQQLEEENAALEYG [P4]
[49]
  interaction score: -2.99
[50]
  interaction score: -3.06
[51]
  interaction score: -2.74
[52]
  interaction score: -2.82
[53]
  interaction score: -3
[54]
  interaction score: -2.91
[55]
  interaction score: -2.66
[56]
  interaction score: -2.83
[57]
  interaction score: -2.91
[58]
  interaction score: -2.77
[59]
  interaction score: -2.29
[60]
  interaction score: -2.85
[61]
  interaction score: -2.74
[62]
  interaction score: -2.83
[63]
  interaction score: -2.87

## DEIAQLEQKIAELKQENAELEWKNAQLKQ [4H344-bA]
[64]
  interaction score: -0.443
[65]
  interaction score: 0.691
[66]
  interaction score: 1.48
[67]
  interaction score: 0.155
[68]
  interaction score: -0.268
